# Source: US20180236028
# System: Reelin of primary cortical neurons (endogenous, cellular and supernatant fractions)
substance,measurement,value
"MMP-9 (active; Calbiochem, PF140)","Reelin processing in primary neurons, Western blot",application of MMP-9 to primary neurons led to a specific accumulation of the 180 kDa fragment in cells and MMP-9 inhibition for 24 hours led to a dramatic increase in full-length cellular Reelin and decrease in cellular 180 kDa Reelin
